Measured values: patent US20210347873A1 (SHANGHAI PHARMAEXPLORER, published 2021)

T1: human APRIL protein (human, UniProt O75888 105-250, limits assumed)
T1 construct: Bought protein; also called recombinant APRIL protein
T1 sequence (looked up): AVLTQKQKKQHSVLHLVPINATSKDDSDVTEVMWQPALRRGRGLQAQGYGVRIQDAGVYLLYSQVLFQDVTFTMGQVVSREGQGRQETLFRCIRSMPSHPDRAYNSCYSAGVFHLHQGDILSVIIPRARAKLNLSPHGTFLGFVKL

T2: cynomolgus BLyS (full length, arginine to histidine at position 132) on CHO-K1 cells (cynomolgus, UniProt Q9Y275 1-285 (human entry))
T2 construct: also called cyno BLyS; CHO-K1 cynoBLyS
T2 chain: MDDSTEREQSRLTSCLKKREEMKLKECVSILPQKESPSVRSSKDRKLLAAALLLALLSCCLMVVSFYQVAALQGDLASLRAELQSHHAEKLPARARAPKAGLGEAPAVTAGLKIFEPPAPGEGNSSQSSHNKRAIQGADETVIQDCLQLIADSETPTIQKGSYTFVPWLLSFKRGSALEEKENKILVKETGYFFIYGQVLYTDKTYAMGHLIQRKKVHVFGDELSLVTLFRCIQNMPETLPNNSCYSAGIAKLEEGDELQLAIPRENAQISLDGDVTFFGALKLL


Tests used:
mouse BLyS protein = mouse BLyS protein (mouse, UniProt Q9WU72 69-309); test: cell-based or functional assay
human APRIL protein [1] = biological target: T1, human APRIL protein; test: ELISA, coated APRIL; antibody 13.3 nM
Summary of the method: (§1)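 Plates coated overnight at 4 °C with human APRIL (1.0 μg/mL), blocked with 1% BSA, then BLyS lead antibodies applied 1 h at 37 °C. Binding detected with HRP secondary antibody (1 h, 37 °C) and TMB for 5 min, stopped with 1.0 N HCl; values are A450, human IgG as control.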

human APRIL protein [2] = biological target: T1, human APRIL protein; test: ELISA, coated APRIL; antibody 2.67 nM
Summary of the method: as §1

human APRIL protein [3] = biological target: T1, human APRIL protein; test: ELISA, coated APRIL; antibody 66.7 nM
Summary of the method: as §1

human APRIL protein [4] = biological target: T1, human APRIL protein; test: ELISA, coated APRIL; antibody 0.534 nM
Summary of the method: as §1

human APRIL protein [5] = biological target: T1, human APRIL protein; test: ELISA, coated APRIL; antibody 0.0213 nM
Summary of the method: as §1

human APRIL protein [6] = biological target: T1, human APRIL protein; test: ELISA, coated APRIL; antibody 0 nM (blank)
Summary of the method: as §1

[7] = biological target: T3, human BLyS (full length, arginine to histidine at position 132) on CHO-K1 cells (human, UniProt Q9Y275 1-285); test: flow cytometry, CHO-K1 hBLyS cells, antibody 0 nM
T3 construct: also called hBLyS; CHO-K1 hBLyS

[8] = biological target: T3, human BLyS (full length, arginine to …); test: flow cytometry, CHO-K1 hBLyS cells, antibody 0.107 nM
[9] = biological target: T3, human BLyS (full length, arginine to …); test: flow cytometry, CHO-K1 hBLyS cells, antibody 0.534 nM
[10] = biological target: T3, human BLyS (full length, arginine to …); test: flow cytometry, CHO-K1 hBLyS cells, antibody 0.00427 nM
[11] = biological target: T2, cynomolgus BLyS (full length, arginine …); test: flow cytometry, CHO-K1 cynoBLyS cells, antibody 0.00427 nM

T3 sequence (Q9Y275 whole entry R130H): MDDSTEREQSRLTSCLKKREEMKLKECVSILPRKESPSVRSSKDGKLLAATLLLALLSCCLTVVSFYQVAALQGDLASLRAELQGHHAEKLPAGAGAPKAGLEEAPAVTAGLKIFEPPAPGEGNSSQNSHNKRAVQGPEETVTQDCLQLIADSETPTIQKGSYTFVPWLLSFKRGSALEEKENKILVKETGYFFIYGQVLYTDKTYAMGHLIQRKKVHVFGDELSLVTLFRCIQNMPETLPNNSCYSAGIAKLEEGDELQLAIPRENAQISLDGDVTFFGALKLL
Sequence of mouse BLyS protein (Q9WU72 69-309): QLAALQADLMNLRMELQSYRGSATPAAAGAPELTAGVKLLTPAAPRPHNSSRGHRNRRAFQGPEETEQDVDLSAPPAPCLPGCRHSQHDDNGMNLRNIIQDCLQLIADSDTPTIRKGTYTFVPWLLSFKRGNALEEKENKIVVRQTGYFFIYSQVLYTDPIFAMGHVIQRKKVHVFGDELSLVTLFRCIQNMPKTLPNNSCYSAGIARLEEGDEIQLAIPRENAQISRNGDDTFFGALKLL

Molecule | mouse B lymphocyte proliferation (OD450 nm), antibody 0 nM (mouse BLyS protein) [OD450 nm] | mouse B lymphocyte proliferation (OD450 nm), antibody 0.000256 nM (mouse BLyS protein) | mouse B lymphocyte proliferation (OD450 nm), antibody 0.00128 nM (mouse BLyS protein) [OD450 nm] | mouse B lymphocyte proliferation (OD450 nm), antibody 0.0064 nM (mouse BLyS protein) [OD450 nm] | mouse B lymphocyte proliferation (OD450 nm), antibody 0.032 nM (mouse BLyS protein) [OD450 nm] | mouse B lymphocyte proliferation (OD450 nm), antibody 0.16 nM (mouse BLyS protein) [OD450 nm] | mouse B lymphocyte proliferation (OD450 nm), antibody 0.8 nM (mouse BLyS protein) [OD450 nm] | mouse B lymphocyte proliferation (OD450 nm), antibody 4 nM (mouse BLyS protein) [OD450 nm] | mouse B lymphocyte proliferation (OD450 nm), antibody 20 nM (mouse BLyS protein) [OD450 nm] | mouse B lymphocyte proliferation (OD450 nm), antibody 100 nM (mouse BLyS protein) [OD450 nm] | OD450 nm (human APRIL protein [1]) | OD450 nm (human APRIL protein [2]) | OD450 nm (human APRIL protein [3]) | OD450 nm (human APRIL protein [4]) | OD450 nm (human APRIL protein [5]) | OD450 nm (human APRIL protein [6]) | MFI [7] [MFI] | MFI [8] [MFI] | MFI [9] [MFI] | MFI [10] [MFI] | also measured
hIgG Control (antibody) | 2220 | 2220 | 2240 | 2460 | 2500 | 2440 | 2510 | 2580 | 2600 | 2670 | 0.226 | 0.128 | 0.477 | 0.0793 | 0.0804 | 0.0711 |  |  |  |  | 
111D10D6G3 (antibody, V domains shown, Mouse hybridoma monoclonal antibody purified on Protein G) VH: QVQLQQPGAELVKPGASVKMSCKASGYTFTRHWITWVKQRPGQGLEWIGDIFPGSGSINYNEKFKSEATLTVEKSSSTAYMQLSSLTSEDSAVYYCARGDVDVWGTGTTVTVSS VL: DIQMTQSPSSLSASLGERVSLTCRASQEIRGYLSWLQQKPNGTIKRLIYAASTLDSGVPKRFSATRSGSDFSLTISSLESEDFADYYCLQYASYPFTFGSGTKLEIK | 2120 | 2300 OD450 nm | 2150 | 2130 | 2320 | 2290 | 2520 | 2710 | 2540 | 2360 |  |  |  |  |  |  | 32.4 | 150 | 247 | 41.2 | MFI [11]: 38.8 MFI
111D10D6G3 (antibody, V domains shown, Mouse hybridoma antibody purified on Protein G) VH: QVQLQQPGAELVKPGASVKMSCKASGYTFTRHWITWVKQRPGQGLEWIGDIFPGSGSINYNEKFKSEATLTVEKSSSTAYMQLSSLTSEDSAVYYCARGDVDVWGTGTTVTVSS VL: DIQMTQSPSSLSASLGERVSLTCRASQEIRGYLSWLQQKPNGTIKRLIYAASTLDSGVPKRFSATRSGSDFSLTISSLESEDFADYYCLQYASYPFTFGSGTKLEIK |  |  |  |  |  |  |  |  |  |  | 0.0573 | 0.0583 | 0.0681 | 0.0525 | 0.0549 | 0.0547 |  |  |  |  | 
L9G7 (antibody, human IgG1, V domains shown) VH: QIQLVQSGAEVKKPGASVKVSCKASGYTFTSYGISWVRQAPGQGLEWMGWISAYNGNTNYAQKLQGRVTMTTDTSTSTAYMELRSLRSDDTAVYYCARTYYDILTGYYYYGMDVWGQGTTVTVSS VL: EIVLTQSPGTLSLSPGERATLSCRTSQSVDTYLAWYQQKPGQAPRLLIYDASNRATGIPARFSGSGSGTDFTLTISSLEPEDFAVYYCQQRSNWPLTFGGGTKVEIK |  |  |  |  |  |  |  |  |  |  | 0.107 | 0.0751 | 0.276 | 0.0741 | 0.0777 | 0.0638 |  |  |  |  | 
97A3C2H4 (antibody, V domains shown, Mouse hybridoma monoclonal antibody purified on Protein G) VH: EVKLVESGGGLVQPGGSLKLSCAASGFTFSTYTMSWVRQTPEKRLEWVAYISYGGGSTSYPDTVKGRFTISRDNAKNTLYLQMSSLKSEDTAIYYCTRHVTVVENSMDYWGQGTSVTVSS VL: DILLTQSPDILSVSPGERVSFSCRASQSIGTSIHWYQQRTNGSPRLLIKYVSESFSGTPSRFSGSGSGTAFTLTINSVESEDIADYYCQQTHSWPWTFGGGTKLEIK | 2160 | 2210 OD450 nm | 2200 | 2250 | 2370 | 2300 | 2410 | 2430 | 2400 | 2320 |  |  |  |  |  |  | 31.2 | 158 | 340 | 44 | MFI [11]: 44.3 MFI

Now from value to molecule, other results behind:

mouse B lymphocyte proliferation (OD450 nm), antibody 0 nM (mouse BLyS protein) [OD450 nm] | mouse B lymphocyte proliferation (OD450 nm), antibody 0.000256 nM (mouse BLyS protein) | mouse B lymphocyte proliferation (OD450 nm), antibody 0.00128 nM (mouse BLyS protein) [OD450 nm] | mouse B lymphocyte proliferation (OD450 nm), antibody 0.0064 nM (mouse BLyS protein) [OD450 nm] | mouse B lymphocyte proliferation (OD450 nm), antibody 0.032 nM (mouse BLyS protein) [OD450 nm] | mouse B lymphocyte proliferation (OD450 nm), antibody 0.16 nM (mouse BLyS protein) [OD450 nm] | mouse B lymphocyte proliferation (OD450 nm), antibody 0.8 nM (mouse BLyS protein) [OD450 nm] | mouse B lymphocyte proliferation (OD450 nm), antibody 4 nM (mouse BLyS protein) [OD450 nm] | mouse B lymphocyte proliferation (OD450 nm), antibody 20 nM (mouse BLyS protein) [OD450 nm] | mouse B lymphocyte proliferation (OD450 nm), antibody 100 nM (mouse BLyS protein) [OD450 nm] | OD450 nm (human APRIL protein [1]) | OD450 nm (human APRIL protein [2]) | OD450 nm (human APRIL protein [3]) | OD450 nm (human APRIL protein [4]) | OD450 nm (human APRIL protein [5]) | OD450 nm (human APRIL protein [6]) | MFI [7] [MFI] | MFI [8] [MFI] | MFI [9] [MFI] | MFI [10] [MFI] | Molecule | also measured
2190 | 2110 | 2270 | 2420 | 2320 | 2330 | 2520 | 2440 | 2360 | 2350 | 0.0624 | 0.0558 | 0.102 | 0.0536 | 0.0537 | 0.0716 |  |  |  |  | mIgG Control (antibody) | 
 |  |  |  |  |  |  |  |  |  | 0.0848 | 0.0617 | 0.173 | 0.059 | 0.0559 | 0.0566 |  |  |  |  | 97A3C2H4 (antibody, V domains shown, Mouse hybridoma antibody purified on Protein G) VH: EVKLVESGGGLVQPGGSLKLSCAASGFTFSTYTMSWVRQTPEKRLEWVAYISYGGGSTSYPDTVKGRFTISRDNAKNTLYLQMSSLKSEDTAIYYCTRHVTVVENSMDYWGQGTSVTVSS VL: DILLTQSPDILSVSPGERVSFSCRASQSIGTSIHWYQQRTNGSPRLLIKYVSESFSGTPSRFSGSGSGTAFTLTINSVESEDIADYYCQQTHSWPWTFGGGTKLEIK | 
2100 | 2220 OD450 nm | 2240 | 2250 | 2320 | 2350 | 2300 | 2440 | 2350 | 2360 |  |  |  |  |  |  | 152 | 282 | 504 | 67.4 | 8E7D9C7F5 (antibody, V domains shown, Mouse hybridoma monoclonal antibody purified on Protein G) VH: QVQLQQSGVELARPGASVKLSCKASGYTFTSYGISWVKQRTGQALEWIGEIYPRSGNTYYNEKFKGKATLTADKSSSTAYMELRSLTSEDSAVYFCARSGPITTLVATDYGMDYWGQGTSVTVSS VL: DIVLTQSPASLAVSLGQRATISCRASKSVSTSSYSYMHWYQQKPGQPPKLLIKFASNLESGVPARFSGSGSGTDFTLNIHPVEEEDAATYYCQHSREFPYTFGGGTKLEIK | MFI [11]: 74.4 MFI
 |  |  |  |  |  |  |  |  |  | 0.124 | 0.102 | 0.133 | 0.0757 | 0.0854 | 0.0625 |  |  |  |  | L1D12 (antibody, human IgG1, V domains shown, also called LID12) VH: QVQLVQSGGGLVQPGGSLRLSCAASGFTVSSNYMSWVRQAPGKGLEWVSVIYSGGSTYYADSVKGRFTISRDNSKNTLYLQMNSLRAEDTAVYYCARGFHDILTGYGMDVWGQGTTVTVSS VL: SSELTQDPAVSVALGQTVRITCQGDSLRNYYAGWYQQKPGQAPVLVIYGKNNRPSGIPDRFSGSSSGNTASLTITGTQAEDEADYYCSSRDNSGTHLVEFGGGTKLTVL | 
